Experimental data as given in PMC4731781, “The β2 clamp in the Mycobacterium tuberculosis DNA polymerase III αβ2ε replicase promotes polymerization and reduces exonuclease activity” (Scientific Reports, 2016).
Where two headings read alike, the source gives them in different places.

Assays:
[1] = molecular target: beta2 clamp (Escherichia coli) (UniProt P0A988); details: cited from earlier work
[2] = molecular target: beta2 clamp (Escherichia coli) (UniProt P0A988); details: cited from earlier work; remark: listed apart in the source
[3] = molecular target: T1, Mtb DNA Pol III α subunit (DnaE1), purified recombinant (Mycobacterium tuberculosis, UniProt P9WNT7 1-1184); assay: SPR; BIAcore3000, β subunit amine-coupled to the chip (about 1800 RU); α injected at 0.01, 0.1 and 1 μM in 50 mM HEPES pH 7.5, 100 mM NaCl, 0.005% Tween20, 30 μl/min; global fit to a 1:1 Langmuir model; details: both partners purified
T1 construct: also called Mtb α; MtbDnaE1; source: E. coli, purified
T1 sequence: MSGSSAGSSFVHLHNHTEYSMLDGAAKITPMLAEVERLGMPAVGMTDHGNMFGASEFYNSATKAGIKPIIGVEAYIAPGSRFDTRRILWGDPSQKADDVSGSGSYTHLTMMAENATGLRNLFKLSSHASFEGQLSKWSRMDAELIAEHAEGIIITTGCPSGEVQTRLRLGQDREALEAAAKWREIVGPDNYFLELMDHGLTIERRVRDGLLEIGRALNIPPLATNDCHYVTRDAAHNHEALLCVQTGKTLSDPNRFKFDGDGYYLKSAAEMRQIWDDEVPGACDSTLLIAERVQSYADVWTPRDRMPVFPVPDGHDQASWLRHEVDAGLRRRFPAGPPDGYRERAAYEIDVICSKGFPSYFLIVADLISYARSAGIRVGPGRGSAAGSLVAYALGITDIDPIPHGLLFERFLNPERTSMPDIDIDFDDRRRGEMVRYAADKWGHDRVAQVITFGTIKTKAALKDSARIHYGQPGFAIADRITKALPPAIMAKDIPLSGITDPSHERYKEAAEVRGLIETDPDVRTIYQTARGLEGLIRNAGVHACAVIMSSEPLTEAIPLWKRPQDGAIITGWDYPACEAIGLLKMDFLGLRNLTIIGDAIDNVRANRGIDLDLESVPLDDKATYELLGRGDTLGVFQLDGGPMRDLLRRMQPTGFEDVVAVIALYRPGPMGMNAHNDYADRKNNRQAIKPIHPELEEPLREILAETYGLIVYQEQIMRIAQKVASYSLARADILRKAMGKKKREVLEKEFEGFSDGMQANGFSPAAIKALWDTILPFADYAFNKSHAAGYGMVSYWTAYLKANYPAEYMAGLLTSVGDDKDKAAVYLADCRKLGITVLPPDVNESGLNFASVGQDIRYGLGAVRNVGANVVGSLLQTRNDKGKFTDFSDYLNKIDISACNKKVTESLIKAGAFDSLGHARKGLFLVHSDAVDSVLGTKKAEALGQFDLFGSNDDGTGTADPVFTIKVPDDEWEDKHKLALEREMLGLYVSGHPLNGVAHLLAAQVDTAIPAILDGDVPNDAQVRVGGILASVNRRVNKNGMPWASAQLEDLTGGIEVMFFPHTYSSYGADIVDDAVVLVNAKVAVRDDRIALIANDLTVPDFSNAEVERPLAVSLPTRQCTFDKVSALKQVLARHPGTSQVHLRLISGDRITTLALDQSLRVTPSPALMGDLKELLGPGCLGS

[4] = molecular target: T2, Mtb DNA Pol III δ subunit (HolA) (Mycobacterium tuberculosis, UniProt P71730 1-322); assay: co-purification, densitometry of an SDS-PAGE gel; details: partners not purified
T2 sequence: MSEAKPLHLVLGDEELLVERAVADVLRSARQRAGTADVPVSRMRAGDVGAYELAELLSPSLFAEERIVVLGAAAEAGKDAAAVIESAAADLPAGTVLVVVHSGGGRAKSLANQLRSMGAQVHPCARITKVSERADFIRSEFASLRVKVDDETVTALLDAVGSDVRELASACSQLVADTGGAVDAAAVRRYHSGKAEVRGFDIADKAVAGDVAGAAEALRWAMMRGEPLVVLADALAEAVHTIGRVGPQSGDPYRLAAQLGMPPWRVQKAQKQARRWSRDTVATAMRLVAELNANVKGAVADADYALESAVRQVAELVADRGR

[5] = molecular target: T3, Mtb DNA Pol III δ’ subunit (HolB) (Mycobacterium tuberculosis, UniProt Q7D554 1-404); assay: co-purification, densitometry of an SDS-PAGE gel; details: partners not purified
T3 sequence: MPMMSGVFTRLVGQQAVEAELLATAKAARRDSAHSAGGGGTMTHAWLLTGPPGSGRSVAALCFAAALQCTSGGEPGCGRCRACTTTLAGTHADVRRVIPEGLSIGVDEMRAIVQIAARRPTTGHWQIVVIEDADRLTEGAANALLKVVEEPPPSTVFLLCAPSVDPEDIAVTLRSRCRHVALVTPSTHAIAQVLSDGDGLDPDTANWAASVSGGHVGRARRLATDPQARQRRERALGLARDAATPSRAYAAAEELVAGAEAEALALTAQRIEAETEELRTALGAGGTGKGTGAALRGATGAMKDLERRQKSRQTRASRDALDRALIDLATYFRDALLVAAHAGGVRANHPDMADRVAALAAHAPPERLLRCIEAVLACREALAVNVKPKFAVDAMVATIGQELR

Sequence of beta2 clamp (Escherichia coli) (P0A988 whole entry): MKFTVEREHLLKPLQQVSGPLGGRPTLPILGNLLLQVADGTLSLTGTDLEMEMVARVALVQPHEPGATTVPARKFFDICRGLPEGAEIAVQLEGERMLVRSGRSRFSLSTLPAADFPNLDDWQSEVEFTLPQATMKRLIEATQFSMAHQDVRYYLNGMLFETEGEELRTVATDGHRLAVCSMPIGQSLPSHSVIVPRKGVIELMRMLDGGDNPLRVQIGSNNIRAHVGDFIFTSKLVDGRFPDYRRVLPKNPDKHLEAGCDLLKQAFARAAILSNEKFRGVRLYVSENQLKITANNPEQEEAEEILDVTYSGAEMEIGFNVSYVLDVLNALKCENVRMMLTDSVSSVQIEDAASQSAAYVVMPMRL

With “DNA polymerase III epsilon (from UniProt P03007)” as the molecule, how does the Kd [1] read?
Its Kd is 200000 nM.

Which Kd [2] does the source give for “DNA polymerase III alpha (from UniProt P10443)” here?
Its Kd is 1200 nM.

B1: Mtb DNA Pol III β2 clamp (DnaN), purified recombinant (natural protein)
chain: MDAATTRVGLTDLTFRLLRESFADAVSWVAKNLPARPAVPVLSGVLLTGSDNGLTISGFDYEVSAEAQVGAEIVSPGSVLVSGRLLSDITRALPNKPVDVHVEGNRVALTCGNARFSLPTMPVEDYPTLPTLPEETGLLPAELFAEAISQVAIAAGRDDTLPMLTGIRVEILGETVVLAATDRFRLAVRELKWSASSPDIEAAVLVPAKTLAEAAKAGIGGSDVRLSLGTGPGVGKDGLLGISGNGKRSTTRLLDAEFPKFRQLLPTEHTAVATMDVAELIEAIKLVALVADRGAQVRMEFADGSVRLSAGADDVGRAEEDLVVDYAGEPLTIAFNPTYLTDGLSSLRSERVSFGFTTAGKPALLRPVSGDDRPVAGLNGNGPFPAVSTDYVYLLMPVRLPG
notes: DNA polymerase III β subunit (sliding clamp) DnaN of Mycobacterium tuberculosis; also called β subunit; β clamp
Which Kd [3] does the source give for B1 here?
The Kd was 10.9 nM.

B2: Mtb DNA Pol III τ subunit (DnaZX) (natural protein)
chain: MALYRKYRPASFAEVVGQEHVTAPLSVALDAGRINHAYLFSGPRGCGKTSSARILARSLNCAQGPTANPCGVCESCVSLAPNAPGSIDVVELDAASHGGVDDTRELRDRAFYAPVQSRYRVFIVDEAHMVTTAGFNALLKIVEEPPEHLIFIFATTEPEKVLPTIRSRTHHYPFRLLPPRTMRALLARICEQEGVVVDDAVYPLVIRAGGGSPRDTLSVLDQLLAGAADTHVTYTRALGLLGVTDVALIDDAVDALAACDAAALFGAIESVIDGGHDPRRFATDLLERFRDLIVLQSVPDAASRGVVDAPEDALDRMREQAARIGRATLTRYAEVVQAGLGEMRGATAPRLLLEVVCARLLLPSASDAESALLQRVERIETRLDMSIPAPQAVPRPSAAAAEPKHQPAREPRPVLAPTPASSEPTVAAVRSMWPTVRDKVRLRSRTTEVMLAGATVRALEDNTLVLTHESAPLARRLSEQRNADVLAEALKDALGVNWRVRCETGEPAAAASPVGGGANVATAKAVNPAPTANSTQRDEEEHMLAEAGRGDPSPRRDPEEVALELLQNELGARRIDNA
notes: Three copies in the clamp loader τ3δδ’ by densitometry
Which results are given for B2?
stoichiometry N [4]: 3 τ per δ; stoichiometry N [5]: 3 τ per δ’
